This note sets out measurements from the supplement of paper PMC7125110.

Sequences and labels used below:
B1: glmS ribozyme (parent)
chain: AUAAAAGCGCCAGAACUACAGAAAUGUAGUUGACGAGGAGGAGGUUUAUCGAAUUUUCGGCGGAUGCCUCCAAA

Conditions in all cases: with glucosamine-6-phosphate
Data set [1] covers variants of B1. The experiment in a line: kcat; higher = faster cleavage; RNA array. In a few lines: (§1)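 Weighted Michaelis–Menten fits across concentrations supplied kcat and KM, based on kobs from one- or two-exponential decay fits to normalised per-tile medians. The data came from barcoded ribozyme variants transcribed in situ by E. coli RNA polymerase on sequenced MiSeq chips and tracked at 37 °C by a hybridised Cy3 probe. Glucosamine-6-phosphate (40 μM to 10 mM) in HEPES/KCl/Mg(OAc)2 buffer was flowed in.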

Variants of B1 are the subject of data set [2]. The experiment in a line: KM; higher = weaker cofactor use; RNA array. In a few lines:
as §1

The variants in data set [3] derive from B1. Briefly: self-cleavage kobs at 160 uM GlcN6P; higher = faster cleavage; RNA array. In a few lines:
as §1

The variants in data set [4] derive from B1. The experiment in a line: self-cleavage kobs at 640 uM GlcN6P; higher = faster cleavage; RNA array. In a few lines: as §1
In data set [5] the parent is B1. Briefly: self-cleavage kobs at 2500 uM GlcN6P; higher = faster cleavage; RNA array. In a few lines:
as §1

Data set [6] covers variants of B1. The experiment in a line: self-cleavage kobs at 10000 uM GlcN6P; higher = faster cleavage; RNA array. In a few lines:
as §1

Data set [7] covers variants of B1. The experiment in a line: self-cleavage kobs at 40 uM GlcN6P; higher = faster cleavage; RNA array. In a few lines:
as §1

± gives the standard error. For some assays here: This sample holds only a part of the variants without activity. Bounds are passed on as bounds.

As a reminder, the kcat is the maximal rate divided by the concentration of active sites. Turning to A6C G29A U57G U69G, in the data set with glucosamine-6-phosphate [1], the turnover number (kcat) is 3.11e-05 ± 1.2e-05 s⁻¹.
Broadly, the KM is the substrate concentration at which the rate is half of its maximum. As to U30A G32U, the kcat with glucosamine-6-phosphate [1] was 0.000735 ± 0.00018 s⁻¹. Also, in the data set with glucosamine-6-phosphate [2], the KM was determined as 4830 ± 1700 µM. Also, the “self-cleavage kobs at 160 uM GlcN6P” value with glucosamine-6-phosphate [3] stood at 3.89e-05 ± 1.7e-05 s⁻¹. In addition, the “self-cleavage kobs at 640 uM GlcN6P” value with glucosamine-6-phosphate [4] was 7.63e-05 ± 1.5e-05 s⁻¹. In the data set with glucosamine-6-phosphate [5], the “self-cleavage kobs at 2500 uM GlcN6P” value is 0.000275 ± 4.2e-05 s⁻¹. Also, the “self-cleavage kobs at 10000 uM GlcN6P” value in the data set with glucosamine-6-phosphate [6] came out at 0.000475 ± 9.5e-05 s⁻¹.
For the variant C16A A53G, in the data set with glucosamine-6-phosphate [1], the turnover number (kcat) is 0.00159 ± 0.00057 s⁻¹. Besides, the “self-cleavage kobs at 40 uM GlcN6P” value with glucosamine-6-phosphate [7] was found to be 7.66e-05 ± 1.7e-05 s⁻¹. Moreover, the “self-cleavage kobs at 160 uM GlcN6P” value in the data set with glucosamine-6-phosphate [3] turned out to be 0.000134 ± 3.8e-05 s⁻¹. Further, the “self-cleavage kobs at 640 uM GlcN6P” value with glucosamine-6-phosphate [4] was found to be 0.000374 ± 9.2e-05 s⁻¹. In addition, the “self-cleavage kobs at 2500 uM GlcN6P” value with glucosamine-6-phosphate [5] was found to be 0.000777 ± 0.00017 s⁻¹. For the same variant, the “self-cleavage kobs at 10000 uM GlcN6P” value with glucosamine-6-phosphate [6] stood at 0.0017 ± 0.00029 s⁻¹.
In the case of G51A U54C, the kcat in the data set with glucosamine-6-phosphate [1] is less than 1e-05 s⁻¹.
Regarding A14G A64U, the catalytic constant (kcat) in the data set with glucosamine-6-phosphate [1] was 0.000311 ± 2.2e-05 s⁻¹. The Michaelis constant (KM) in the data set with glucosamine-6-phosphate [2] was 1830 ± 300 µM. Besides, the “self-cleavage kobs at 640 uM GlcN6P” value with glucosamine-6-phosphate [4] turned out to be 7.9e-05 ± 1e-05 s⁻¹. In the data set with glucosamine-6-phosphate [5], the “self-cleavage kobs at 2500 uM GlcN6P” value was 0.000199 ± 2.7e-05 s⁻¹. Besides, the “self-cleavage kobs at 10000 uM GlcN6P” value with glucosamine-6-phosphate [6] came to 0.000257 ± 2.3e-05 s⁻¹.
Consider C10U A15G C68U, for which, in the data set with glucosamine-6-phosphate [1], the kcat is 1.81e-05 ± 6.2e-06 s⁻¹.
Consider A52C U57C, for which the turnover number (kcat) with glucosamine-6-phosphate [1] stood at 3.44e-05 ± 6.5e-06 s⁻¹. Besides, the “self-cleavage kobs at 2500 uM GlcN6P” value with glucosamine-6-phosphate [5] is 4.64e-05 ± 1.6e-05 s⁻¹. For the same variant, in the data set with glucosamine-6-phosphate [6], the “self-cleavage kobs at 10000 uM GlcN6P” value was found to be 2.95e-05 ± 1e-05 s⁻¹.
Take C10U U69G: the kcat with glucosamine-6-phosphate [1] was 2.93e-05 ± 5.7e-06 s⁻¹. The “self-cleavage kobs at 160 uM GlcN6P” value with glucosamine-6-phosphate [3] was determined as 2.85e-05 ± 8.2e-06 s⁻¹. For the same variant, the “self-cleavage kobs at 640 uM GlcN6P” value with glucosamine-6-phosphate [4] came to 2.55e-05 ± 1.1e-05 s⁻¹. Besides, the “self-cleavage kobs at 2500 uM GlcN6P” value with glucosamine-6-phosphate [5] was 3.24e-05 ± 9.9e-06 s⁻¹.
With C67G U69A, the turnover number (kcat) with glucosamine-6-phosphate [1] is 1.14e-05 ± 5.3e-06 s⁻¹.
With A48U C71U, the kcat with glucosamine-6-phosphate [1] came to 0.000562 ± 8.4e-05 s⁻¹. Moreover, the Michaelis constant (KM) with glucosamine-6-phosphate [2] amounted to 1890 ± 590 µM. Moreover, the “self-cleavage kobs at 640 uM GlcN6P” value with glucosamine-6-phosphate [4] came out at 0.000153 ± 2.3e-05 s⁻¹. Further, the “self-cleavage kobs at 2500 uM GlcN6P” value with glucosamine-6-phosphate [5] amounted to 0.000338 ± 5.6e-05 s⁻¹. Besides, the “self-cleavage kobs at 10000 uM GlcN6P” value with glucosamine-6-phosphate [6] turned out to be 0.000461 ± 5.6e-05 s⁻¹.
As for C61A U69G, the catalytic constant (kcat) in the data set with glucosamine-6-phosphate [1] is less than 1e-05 s⁻¹. For the same variant, in the data set with glucosamine-6-phosphate [7], the “self-cleavage kobs at 40 uM GlcN6P” value was less than 1e-05 s⁻¹.
Consider A12G C68G, for which the turnover number (kcat) with glucosamine-6-phosphate [1] amounted to 3.14e-05 ± 6.3e-06 s⁻¹. Besides, the “self-cleavage kobs at 2500 uM GlcN6P” value with glucosamine-6-phosphate [5] is 4.35e-05 ± 1.8e-05 s⁻¹.
Turning to A64G G66U, the kcat with glucosamine-6-phosphate [1] was 0.00159 ± 7.8e-05 s⁻¹. The KM with glucosamine-6-phosphate [2] was determined as 1210 ± 120 µM. Further, the “self-cleavage kobs at 160 uM GlcN6P” value in the data set with glucosamine-6-phosphate [3] stood at 0.000178 ± 5.7e-05 s⁻¹. In addition, the “self-cleavage kobs at 640 uM GlcN6P” value in the data set with glucosamine-6-phosphate [4] stood at 0.000588 ± 0.00016 s⁻¹. Further, the “self-cleavage kobs at 2500 uM GlcN6P” value with glucosamine-6-phosphate [5] was determined as 0.00102 ± 0.00034 s⁻¹. Also, in the data set with glucosamine-6-phosphate [6], the “self-cleavage kobs at 10000 uM GlcN6P” value came out at 0.00143 ± 0.0003 s⁻¹.
With G32A A64C, the kcat with glucosamine-6-phosphate [1] came to 1.13e-05 ± 9e-07 s⁻¹. In the data set with glucosamine-6-phosphate [2], the Michaelis constant (KM) amounted to 1760 ± 490 µM.
Turning to C10A U54A, the turnover number (kcat) in the data set with glucosamine-6-phosphate [1] was less than 1e-05 s⁻¹. In addition, the “self-cleavage kobs at 40 uM GlcN6P” value with glucosamine-6-phosphate [7] was less than 1e-05 s⁻¹.
Consider C34G C70A, for which the kcat in the data set with glucosamine-6-phosphate [1] is 1.99e-05 ± 6.8e-06 s⁻¹.
In the case of A6C C70U, in the data set with glucosamine-6-phosphate [1], the catalytic constant (kcat) was determined as 0.000107 ± 2.6e-06 s⁻¹. In the data set with glucosamine-6-phosphate [2], the KM stood at 1350 ± 110 µM. Moreover, the “self-cleavage kobs at 640 uM GlcN6P” value with glucosamine-6-phosphate [4] was 3.3e-05 ± 6.9e-06 s⁻¹. The “self-cleavage kobs at 2500 uM GlcN6P” value with glucosamine-6-phosphate [5] was determined as 7.26e-05 ± 9.6e-06 s⁻¹. In the data set with glucosamine-6-phosphate [6], the “self-cleavage kobs at 10000 uM GlcN6P” value stood at 9.39e-05 ± 7.1e-06 s⁻¹.
Take C50G C71G: in the data set with glucosamine-6-phosphate [1], the turnover number (kcat) is 0.000204 ± 3.9e-05 s⁻¹. For the same variant, the “self-cleavage kobs at 40 uM GlcN6P” value with glucosamine-6-phosphate [7] amounted to 0.000109 ± 9.6e-06 s⁻¹. The “self-cleavage kobs at 160 uM GlcN6P” value with glucosamine-6-phosphate [3] stood at 0.000249 ± 4.4e-05 s⁻¹. The “self-cleavage kobs at 640 uM GlcN6P” value with glucosamine-6-phosphate [4] came out at 0.000149 ± 2.4e-05 s⁻¹. Also, in the data set with glucosamine-6-phosphate [5], the “self-cleavage kobs at 2500 uM GlcN6P” value worked out at 0.000242 ± 3.1e-05 s⁻¹.
For the variant G29A U56A, in the data set with glucosamine-6-phosphate [1], the kcat stood at 0.00321 ± 0.0012 s⁻¹. In the data set with glucosamine-6-phosphate [7], the “self-cleavage kobs at 40 uM GlcN6P” value was found to be 4.94e-05 ± 9.7e-06 s⁻¹. Further, the “self-cleavage kobs at 160 uM GlcN6P” value in the data set with glucosamine-6-phosphate [3] is 0.000108 ± 2.2e-05 s⁻¹. Further, in the data set with glucosamine-6-phosphate [4], the “self-cleavage kobs at 640 uM GlcN6P” value is 0.000389 ± 7.9e-05 s⁻¹. Moreover, in the data set with glucosamine-6-phosphate [5], the “self-cleavage kobs at 2500 uM GlcN6P” value was found to be 0.000941 ± 0.00015 s⁻¹. The “self-cleavage kobs at 10000 uM GlcN6P” value in the data set with glucosamine-6-phosphate [6] is 0.00255 ± 0.00036 s⁻¹.
On to A14U C50U, for which, in the data set with glucosamine-6-phosphate [1], the kcat turned out to be 4.31e-05 ± 1.5e-06 s⁻¹. Also, in the data set with glucosamine-6-phosphate [2], the KM came to 1180 ± 170 µM. In addition, the “self-cleavage kobs at 2500 uM GlcN6P” value with glucosamine-6-phosphate [5] was determined as 3.01e-05 ± 1.1e-05 s⁻¹. In the data set with glucosamine-6-phosphate [6], the “self-cleavage kobs at 10000 uM GlcN6P” value was determined as 3.81e-05 ± 1.1e-05 s⁻¹.
